The results in this text go back to the Immune Epitope Database (IEDB).

Experiment [1] has as its target HLA-A*11:01. The experiment in a line: IEDB peptide-MHC binding, purified MHC/direct/fluorescence; filed as Kd, often an IC50 or EC50 that approximates it; ≥ and ≤ were set here for values at or beyond the usual limits of such assays.
For experiment [2], the target named is HLA-A*03:01. Described as above.
For experiment [3], the target named is HLA-A*69:01. Described as above.
The target of experiment [4] is HLA-A*02:01. The experiment is described as above.
Experiment [5] concerns the target HLA-B*07:02. The description is as above.
In experiment [6] the target is HLA-A*30:02. The experiment in a line: IEDB peptide-MHC binding, purified MHC/competitive/radioactivity; filed as Kd, often an IC50 or EC50 that approximates it; ≥ and ≤ were set here for values at or beyond the usual limits of such assays.
In experiment [7] the target is HLA-A*02:01. As to the kind of experiment: IEDB peptide-MHC binding, purified MHC/competitive/fluorescence; filed as Kd, often an IC50 or EC50 that approximates it; ≥ and ≤ were set here for values at or beyond the usual limits of such assays.
Experiment [8] addresses HLA-B*40:01. The experiment in a line: IEDB peptide-MHC binding, purified MHC/direct/fluorescence; filed as Kd, often an IC50 or EC50 that approximates it; ≥ and ≤ were set here for values at or beyond the usual limits of such assays.
Experiment [9] has as its target HLA-B*53:01. As to the kind of experiment: IEDB peptide-MHC binding, purified MHC/competitive/radioactivity; filed as Kd, often an IC50 or EC50 that approximates it; ≥ and ≤ were set here for values at or beyond the usual limits of such assays.
Experiment [10] addresses HLA-B*15:01. As to the kind of experiment: IEDB peptide-MHC binding, purified MHC/direct/fluorescence; filed as Kd, often an IC50 or EC50 that approximates it; ≥ and ≤ were set here for values at or beyond the usual limits of such assays.
Experiment [11] addresses HLA-A*02:06. As to the kind of experiment: IEDB peptide-MHC binding, purified MHC/competitive/radioactivity; filed as Kd, often an IC50 or EC50 that approximates it; ≥ and ≤ were set here for values at or beyond the usual limits of such assays.
Experiment [12] deals with HLA-B*51:01. The experiment is described as above.
The target in experiment [13] is HLA-A*24:02. The experiment is described as above.
The target of experiment [14] is HLA-A*01:01. The experiment in a line: IEDB peptide-MHC binding, purified MHC/direct/fluorescence; filed as Kd, often an IC50 or EC50 that approximates it; ≥ and ≤ were set here for values at or beyond the usual limits of such assays. The following applies: source organism: Amur virus.
Experiment [15] addresses HLA-A*02:03. As to the kind of experiment: IEDB peptide-MHC binding, purified MHC/competitive/radioactivity; filed as Kd, often an IC50 or EC50 that approximates it; ≥ and ≤ were set here for values at or beyond the usual limits of such assays. The following applies: source organism: Vaccinia virus WR.
Experiment [16] has as its target HLA-A*02:02. Described as above. The following applies: source organism: Vaccinia virus WR.
Experiment [17] addresses HLA-B*58:01. The experiment in a line: IEDB peptide-MHC binding, purified MHC/direct/fluorescence; filed as Kd, often an IC50 or EC50 that approximates it; ≥ and ≤ were set here for values at or beyond the usual limits of such assays. The following applies: source organism: Pseudomonas aeruginosa.
Where [18] appears, read: source organism: Francisella tularensis subsp. holarctica LVS.
[19] abbreviates: source organism: Orthomarburgvirus marburgense.
Where [20] appears, read: source organism: Dengue virus 4 Philippines/H241/1956.
[21] abbreviates: source organism: Dengue virus 3 Martinique/1243/1999.
Setting [22] is: source organism: Cryptosporidium parvum.
[23] abbreviates: source organism: Dengue virus 1 Brazil/97-11/1997.
Setting [24] is: source organism: West Nile virus.
The mark [25] stands for this setting: source organism: Cryptosporidium hominis.
Where [26] appears, read: source organism: Campylobacter jejuni RM1221.
Setting [27] is: source organism: Vaccinia virus WR.
Setting [28] is: source organism: Vibrio vulnificus.
[29] abbreviates: source organism: Dengue virus 2 Jamaica/1409/1983.
Setting [30] is: source organism: Dengue virus 3 Singapore/8120/1995.
Where [31] appears, read: source organism: Burkholderia pseudomallei.
Where [32] appears, read: source organism: Human immunodeficiency virus 1.
The mark [33] stands for this setting: source organism: Pseudomonas aeruginosa.

In general, Kd refers to the constant that tells how readily two partners part at equilibrium. Regarding KLYSYGIGY, the results for the Kd in experiment [1] (setting [18]) and in experiment [2] (setting [18]) were 75.4 nM and 1.4 nM, respectively. In the case of GLYPQLSAI, the Kd in experiment [3] (setting [19]) was 3860 nM; in [4] (setting [19]), 123 nM. RRRPVTRPL had an equilibrium dissociation constant (Kd) in experiment [5] (source organism: Candidatus Solibacter) of 3.4 nM.

For QNKEGDQYIY, the Kd in experiment [6] (source organism: Dengue virus 1 Nauru/West Pac/1974) is 1350 nM. In the case of ILLSCIHTT, in experiment [7] (source organism: Vaccinia virus Copenhagen), the Kd stood at 1.2 nM. For the sequence RFLGEDGCWY, the dissociation constant (Kd) in experiment [6] (setting [20]) turned out to be 26.3 nM. On to EEFFCVHGM, for which the Kd in [8] (source organism: Mycobacterium tuberculosis) is 167 nM. In the case of GCGRGGWSYY, in experiment [6] (setting [21]), the Kd amounted to 9.43 nM. With STKNILVTV, the Kd in experiment [3] (setting [22]) worked out at 60.7 nM; in experiment [4] (setting [22]), 416 nM. With TKLEGKIVQY, the Kd in experiment [6] (setting [23]) came out at 7040 nM.

VHQVFGTAY: in [6] (setting [23]), the Kd stood at 599 nM. As to PPTAGILARW, the Kd in experiment [9] (setting [23]) was found to be 10300 nM. On to VMGITAEWLW, for which the Kd in experiment [9] (setting [21]) was determined as 39.9 nM.

In [10] (source organism: Yellow fever virus 17D), SVKEDLVAY had a Kd of 95.5 nM. The sequence VLSLIGLKR had a Kd in experiment [1] (setting [24]) not below 20000 nM.

As for FSLGILCVSI, the Kd in [11] (setting [23]) is 3.63 nM; in experiment [12] (setting [23]), not below 39500 nM.

In the case of LAYVVIGIL, the Kd in [12] (setting [21]) stood at 1320 nM. In the case of SGFGGETPV, the Kd is 13500 nM in experiment [3] (setting [25]) and 863 nM in experiment [4] (setting [25]).

GIYHDICEI: the Kd in experiment [3] (setting [26]) is not below 20000 nM; in [4] (setting [26]) it was 162 nM. In turn, KISNTTFEV returned a Kd in experiment [7] (source organism: Vaccinia virus) of 1.9 nM. As to TPEGEVGAI, the Kd in experiment [9] (setting [23]) was not below 40200 nM. For CAIILGGLTW, in [9] (setting [20]), the dissociation constant (Kd) worked out at 549 nM. For LAGFMAYMI, the Kd worked out at 2120 nM in [9] (setting [20]) and 7090 nM in experiment [12] (setting [20]). Regarding EEFCDMLRL, the Kd in [8] (source organism: Mammarenavirus lassaense) is 255 nM. As to YLIHDNIMYT, in experiment [7] (setting [27]), the Kd came to 1.4 nM. HLAGFIHAC: the Kd was 21.5 nM in experiment [4] (setting [28]) and 2280 nM in experiment [10] (setting [28]). Consider FKLTYQNKVV, for which the Kd in experiment [12] (setting [29]) was not below 60000 nM. With LLFLKDVEP, the Kd in [7] (setting [27]) worked out at 13.4 nM. As to GVNKQTAMK, the Kd in experiment [1] (setting [24]) was found to be 20.3 nM; in experiment [2] (setting [24]), 600 nM. YAQIQPHWI: in experiment [12] (setting [29]), the Kd was 1080 nM. Regarding LEKTHNGKL, in experiment [8] (source organism: Influenza A virus (A/RI/5-/1957(H2N2))), the Kd was determined as 124 nM.

In the case of LWPKTHTLW, the Kd in [13] (setting [20]) was 44.9 nM. As to YTTMFGGVSW, in [9] (setting [20]), the Kd turned out to be 119 nM. As for MPGTRKVMEI, the results for the Kd in experiment [9] (setting [30]) and in [12] (setting [30]) were 76.4 nM and 1100 nM, respectively. For the sequence WAYHGSYEV, the results for the Kd in [11] (setting [23]) and in [12] (setting [23]) were 24.5 nM and 11.1 nM, respectively. As to RNQNKEGDQY, the Kd in experiment [6] (setting [23]) was determined as 120 nM. LTSSSKYTY returned a Kd in experiment [14] of 33 nM. For the sequence KVASEGFQY, the Kd in experiment [6] (setting [23]) is 28.9 nM. With CNLTSTWVTY, the Kd in experiment [6] (setting [21]) is not below 68900 nM. As for DAAVVFPPV, the results for the Kd in experiment [3] (setting [31]) and in [4] (setting [31]) were 0.4 nM and not below 20000 nM, respectively. For VPGLPGTVL, the Kd amounted to 4550 nM in [1] (source organism: SARS-CoV1) and 91.5 nM in [5] (source organism: SARS-CoV1). In the case of AARHKHQVM, the Kd in [5] (source organism: Danio rerio) amounted to 64.8 nM. Turning to ATPQDLNTM, the Kd is not below 28800 nM in experiment [4] (setting [32]) and 11200 nM in experiment [5] (setting [32]). In the case of MVEYLENQL, the Kd in experiment [15] worked out at 6460 nM; in experiment [11] (setting [27]) it was 3960 nM; in experiment [16] it was 343 nM.

On to GYHTQTAGPW, for which the Kd in [13] (setting [29]) came out at 3250 nM. On to VPLAGPMVA, for which, in experiment [12] (setting [20]), the Kd worked out at 17000 nM. In the case of ILGRYLPEF, the Kd in experiment [3] (setting [33]) amounted to 18100 nM; in [4] (setting [33]) it was 4130 nM; in experiment [10] (setting [33]), 150 nM; in experiment [17] it was 146 nM. On to KAMHDKKIDI, for which the Kd in experiment [15] was not below 46200 nM; in [11] (setting [27]), not below 26400 nM; in experiment [16], not below 70000 nM.

Consider NTIDKSSPL, for which the Kd worked out at 27.1 nM in experiment [15], 18.6 nM in [11] (setting [27]) and 82.3 nM in experiment [16]. Take IMLKANFSV: the Kd in [7] (source organism: Influenza A virus (A/Hokkaido/20/89(H3N2))) came out at 0.3 nM.
